# Patent US10184140B2, “Materials and methods for production of bi-functional fatty acids in recombinant bacteria” (IOWA STATE UNIVERSITY RESEARCH FOUNDATION, INC., priority 2013, dated 2019)
# Positions count from the first letter of the chain named. In names and notes the source's numbering stands.
# B1: B. subtilis KASIIIa Wild-type: B. subtilis KASIIIA, bfabHA (yjaX) locus, GenBank CAB12974.1, amino acid sequence SEQ ID NO:64 (protein)
# chain: MKAGILGVGRYIPEKVLTNHDLEKMVETSDEWIRTRTGIEERRIAADDVFSSHMAVAAAKNALEQAEVAAEDLDMILVATVTPDQSFPTVSCMIQEQLGAKKACAMDISAACAGFMYGVVTGKQFIESGTYKHVLVVGVEKLSSITDWEDRNTAVLFGDGAGAAVVGPVSDDRGILSFELGADGTGGQHLYLNEKRHTIMNGREVFKFAVRQMGESCVNVIEKAGLSKEDVDFLIPHQANIRIMEAARERLELPVEKMSKTVHKYGNTSAASIPISLVEELEAGKIKDGDVVVMVGFGGGLTWGAIAIRWGR
# modifications: B. subtilis
# B2: B. subtilis KASIIIa F208V_M213L: B. subtilis KASIIIA double mutant F208V_M213L, amino acid sequence SEQ ID NO:124 (protein)
# chain: B1 chain with F208V, M213L
# modifications: B. subtilis KASIIIA double mutant; (208)..(208) phenylalanine at amino acid position 208 replaced with valine; (213)..(213) methionine at amino acid position 213 replaced with leucine
# B3: B. subtilis KASIIIa F208V: B. subtilis KASIIIA single mutant F208V, amino acid sequence SEQ ID NO:120 (protein)
# chain: B1 chain with F208V
# modifications: B. subtilis KASIIIA mutant; (208)..(208) phenylalanine at amino acid position 208 replaced with valine
# B4: B. subtilis KASIIIa M213L: B. subtilis KASIIIA single mutant M213L, amino acid sequence SEQ ID NO:122 (protein)
# chain: B1 chain with M213L
# modifications: B. subtilis KASIIIA mutant; (213)..(213) methionine at amino acid position 213 replaced with leucine
# B5: B. subtilis KASIIIa F297A: B. subtilis KASIII containing an F297A mutation, amino acid sequence SEQ ID NO:126 (protein)
# chain: B1 chain with F208V, M213L, F297A
# modifications: B. subtilis KASIIIA mutant; (297)..(297) phenylalanine at amino acid position 297 replaced with alanine
# B6: KASIII from Bacteroides vulgatus: KASIII from Bacteroides vulgatus, GenBank ABR38167.1 (protein, UniProt A6KXK3 1-334, looked up)
# Beta-ketoacyl-[acyl-carrier-pr …: MEKINAVITGVGGYVPDYVLTNEEISRMVDTNDEWIMTRIGVKERRILNEEGLGTSYMARKAAKQLMQKTASNPDDIDAVIVATTTPDYHFPSTASILCDKLGLKNAFAFDLQAACCGFLYLMETAASLIASGRHKKIIIVGADKMSSMVNYQDRATCPIFGDGAAACMVEATTEDYGIMDSILRTDGKGLPFLHMKAGGSVCPPSYFTVDHKMHYLYQEGRTVFKYAVSNMSDITATIAEKNGLNKDNIDWVIPHQANLRIIDAVASRLEVPLEKVMINIQRYGNTSGATLPLCLWDYEKQLKKGDNLIFTAFGAGFTYGAVYVKWGYDGSKR
# B7: B. subtilis KASIIIb W221V: B. subtilis KASIIIB single mutant W221V, amino acid sequence SEQ ID NO:128 (protein)
# chain: MSKAKITAIGTYAPSRRLTNADLEKIVDTSDEWIVQRTGMRERRIADEHQFTSDLCIEAVKNLKSRYKGTLDDVDMILVATTTSDYAFPSTACRVQEYFGWESTGALDINATCAGLTYGLHLANGLITSGLHQKILVIAGETLSKVTDYTDRTTCVLFGDAAGALLVERDEETPGFLASVQGTSGNGGDILYRAGLRNEINGVQLVGSGKMVQNGREVYKVAARTVPGEFERLLHKAGLSSDDLDWFVPHSANLRMIESICEKTPFPIEKTLTSVEHYGNTSSVSIVLALDLAVKAGKLKKDQIVLLFGFGGGLTYTGLLIKWGM
# modifications: B. subtilis KASIIIB mutant; (221)..(221) tryptophan at amino acid position 221 replaced with valine
# B8: B. subtilis KASIIIb V226L: B. subtilis KASIIIB single mutant V226L, amino acid sequence SEQ ID NO:130 (protein)
# chain: B7 chain with V221W, V226L
# modifications: B. subtilis KASIIIB mutant; (226)..(226) valine at amino acid position 226 replaced with leucine
# B9: E. coli KASIII F304A (protein)
# chain: MYTKIIGTGSYLPEQVRTNADLEKMVDTSDEWIVTRTGIRERHIAAPNETVSTMGFEAATRAIEMAGIEKDQIGLIVVATTSATHAFPSAACQIQSMLGIKGCPAFDVAAACAGFTYALSVADQYVKSGAVKYALVVGSDVLARTCDPTDRGTIIIFGDGAGAAVLAASEEPGIISTHLHADGSYGELLTLPNADRVNPENSIHLTMAGNEVFKFAVTEMAHIVDETLAANNLDRSQLDWLVPHQANLRIISATAKKLGMSMDNVVVTLDRHGNTSAASVPCALDEAVRDGRIKPGQLVLLEAAGGGFTWGSALVRF
# modifications: E. coli mutant; (304)..(304) phenylalanine at amino acid position 304 replaced with alanine
# B10: E. coli KASIII V215F_L220M: E. coli KASIII double mutant V215F_L220M, amino acid sequence SEQ ID NO:116 (protein)
# chain: B9 chain with A304F
# modifications: E. coli mutant; (215)..(215) valine at amino acid position 215 replaced with phenylalanine; (220)..(220) leucine at amino acid position 220 replaced with methionine
# What was measured:
# [1] = Spectrophotometric coupled assay (FabD/FabG, NADPH at 340 nm) of KASIII specific activity with acyl-CoA substrates; conditions: for Specific Activity with Acetyl-CoA: substrate acetyl-CoA; for Specific Activity with Acetyl-CoA / Specific Activity with Isobutyryl-CoA: n.d. = not detectable; for Specific Activity with Isobutyryl-CoA: substrate isobutyryl-CoA
# Procedure: The method comprises (i) incubating holo-ACP, malonyl-CoA, acyl-CoA, NADPH, and malonyl-CoA:ACP transacylase (FabD), (ii) adding KASIII and 3-ketoacyl-ACP reductase (FabG), and (iii) measuring the change in absorbance at 340 nm when NADPH is converted to NADP+ during reduction of 3-ketoacyl-ACP to 3-hydroxyl-acyl ACP by FabG.
# Activity of A. acidocaldarius KASIII with different acyl-CoA substrates (acetyl-CoA, isobutyryl-CoA and 3-hydroxybutyryl-CoA (Sigma-Aldrich)) was ascertained by a coupled assay. The assay was performed in 96-well plate format with three replicates for each reaction condition. In a total volume of 100 μl for each reaction the reaction mix containing 100 μM holo-ACP, 200 μM malonyl-CoA, 10 mM DTT, 50 μM acyl-CoA substrate (either acetyl-CoA, isobutyryl-CoA or 3-hydroxy-butyryl-CoA) and 200 μM NADPH in 0.1 M sodium phosphate buffer (pH 7.2) was pre-incubated with 60 μg of FabD for two minutes. The reaction was started by the addition of 30 μg of FabG and varying concentrations of A. acidocaldarius (0.5-15 μg). Change in absorbance of NADPH that was being converted to NADP^+ during reduction of 3-ketoacyl-ACP 3-hydroxy-acyl-ACP by FabG was recorded at 340 nm using a Biotek multi-plate reader.
# Spectrophotometric assay was used to assess the activity of A. acidocaldarius KASIII with various acyl-CoA substrates. The assay coupled the appearance of the KASIII-product (3-ketoacyl-ACP) to the oxidation of NADPH, catalyzed by 3-ketoacyl-ACP reductase (FabG).
# KASIII enzymatic activity was ascertained via spectrophotometric assay, which coupled the appearance of 3-ketoacyl-ACP to the oxidation of NADPH, using the E. coli FabG protein to reduce 3-ketoacyl-ACP to 3-hydroxyacyl-ACP. The assay was performed in a 96-well plate-format with three technical replicates for each reaction condition. In a total volume of 100 μl for each reaction, the reaction mix contained 100 μM holo-ACP, 200 μM malonyl-CoA, 10 mM DTT, 50 μM acyl-CoA substrate, and 200 μM NADPH in 0.1 M sodium phosphate buffer (pH 7.2). This mixture was pre-incubated with 60 μg of FabD for two minutes to initiate synthesis of malonyl-ACP from malonyl-CoA and holo-ACP. The reaction was then started by the addition of 30 μg of FabG and varying concentrations of KASIII enzyme (0.5-15 μg). As KASIII catalysed the condensation of acyl-CoA with malonyl-ACP to form 3-ketoacyl-ACP, FabG reduced the 3-ketoacyl-ACP intermediate to 3-hydroxy-acyl ACP in the presence of NADPH.
# [2] = Saturation Transfer Difference NMR of KASIII enzymes with acetyl-CoA or isobutyryl-CoA; type: binding
# Procedure: NMR experiments were performed at 25° C. on a Bruker AV700 MHz spectrometer equipped with a 5 mm HCN cryoprobe. Samples for STD NMR experiments were prepared in 0.1 M sodium phosphate buffer (pH 7.4) with 5% D2O. The protein/ligand ratio was set as 1:100 with KASIII concentration in the 20-25 μM range. Saturation was applied as CW pulse with a power of 58-60 Hz, with on-resonance pulses at 0.62 ppm and 6.86 ppm for upfield and downfield, respectively. The off-resonance pulse was applied at 45 ppm. 3-9-19 WATERGATE suppression was used with a T1-ρ filter. Saturation time of five seconds with an additional delay of 5.1 seconds was used. A set of three replicates was acquired, with 32 scans in each replicate, for each STD NMR experiment of KASIII wild-type or mutated enzyme with a ligand, which was either acetyl-CoA or isobutyryl-CoA (Sigma-Aldrich, St. Louis, Mo.). The reference and the saturated spectra were obtained in an interleaved manner. Resonance assignments of 1H NMR spectra of free ligands were completed using ID 1H and COSY.
# Control experiments were carried out by applying on- and off-resonance saturation pulses either to the ligand in the absence of protein, or to the ligand in the presence of denatured protein.
# Relative STD effects (ASTD) were calculated according to the equation ASTD=(Io−Isat)/Io where Isat is the signal intensity of the saturated spectrum and Io is the signal intensity of the reference spectrum (Mayer et al., J. Am. Chem. Soc. 123: 6108-6117 (2001)). STD amplification factor was calculated according to the equation: STDaf=ASTD×molar ligand excess.
# STD NMR experiments elucidated interactions of these purified enzymes (both wild-type and mutated) with straight-chain substrate (acetyl-CoA) and branched-chain substrate (isobutyryl-CoA) and enabled mapping of binding epitopes on the two substrates. Relative saturation transfer to each of the binding epitopes was measured and converted to the STD amplification factor (STDaf), which is an indicator of ligand binding (Mayer et al., J. Am. Chem. Soc. 123: 6108-6117 (2001)). Ligand epitopes with high STDaf values are assumed to receive higher saturation transfer from the enzyme, and thus are in close contact with the enzyme.
# [3] = system: B. subtilis FabH deletion mutant; test: Fatty acid production by recombinant KASIII in B. subtilis FabH deletion mutant; type: cell-based; conditions: B. subtilis FabH deletion mutant rescued by the recombinant KASIII
molecule,measurement,setting,value
B1,Catalytic activity with the isobutyryl-CoA substrate retained,"[1]; conserved Phe mutated to Ala, compared with wild-type",about 25%
same,Specific Activity with Acetyl-CoA,[1],64 ± 32 nmol/min/mg
same,Specific Activity with Isobutyryl-CoA,[1],205 ± 139 nmol/min/mg
same,Higher saturation of HAP proton of isobutyryl-CoA as compared to the acetyl-CoA HAP proton,[2]; isobutyryl-CoA vs acetyl-CoA,~28%
same,"STD amplification factor (STDaf), HT proton of acetyl-CoA","[2]; protein/ligand 1:100, 25° C.",1.5
same,"STD amplification factor (STDaf), HT proton of isobutyryl-CoA","[2]; protein/ligand 1:100, 25° C.",1.5
B2,Specific Activity with Isobutyryl-CoA,[1],17 ± 7 nmol/min/mg
B3,Decrease in saturation transfer/STDaf for isobutyryl-CoA HT and HB protons in comparison to the wild-type,[2]; mutant vs wild-type,~40%
B4,Specific Activity with Isobutyryl-CoA,[1],156 ± 47 nmol/min/mg
same,Decrease in STDaf for acetyl-CoA HT proton,[2]; mutant vs wild-type,40%
same,Decrease in saturation transfer/STDaf for isobutyryl-CoA HT and HB protons in comparison to the wild-type,[2]; mutant vs wild-type,60-70%
B5,Specific Activity with Isobutyryl-CoA,[1],56 ± 28 nmol/min/mg
B6,Substrate preference in the spectrophotometric assay,"[1]; acetyl-CoA, isobutyryl-CoA and 3-hydroxybutyryl-CoA tested",higher preference for isobutyryl-CoA and 3-hydroxybutyryl-CoA as compared to acetyl-CoA
same,Fatty acid content: Anteiso-fatty acids,[3],70.43 mole %
same,Fatty acid content: Even-number iso-fatty acids,[3],1.73 mole %
same,Fatty acid content: Even-number normal fatty acids,[3],9.51 mole %
same,Fatty acid content: Odd-number iso-fatty acids,[3],18.24 mole %
same,Fatty acid content: Odd-number normal fatty acids,[3],0.09 mole %
B7,Specific Activity with Isobutyryl-CoA,[1],completely eliminated activity
B8,Loss of activity with isobutyryl-CoA,[1]; mutant compared with wild-type enzyme,approximately 50%
same,Specific Activity with Isobutyryl-CoA,[1],134 ± 6 nmol/min/mg
B9,Lower saturation transfer to the HT protons of acetyl-CoA and isobutyryl-CoA compared to the wild-type,[2]; mutant vs wild-type,approximately 60%
B10,Specific Activity with Acetyl-CoA,[1],221 ± 104 nmol/min/mg
same,Specific Activity with Isobutyryl-CoA,[1],18 ± 5 nmol/min/mg
